Assay results taken from publication PMC7450122.

Biological target: GST-p65, purified recombinant (UniProt Q04206)
Assay: alanine-scanning peptide array probed with GST-p65, anti-GST immunoblot

Chain of UniProt Q04206 (Q04206 whole entry, looked up): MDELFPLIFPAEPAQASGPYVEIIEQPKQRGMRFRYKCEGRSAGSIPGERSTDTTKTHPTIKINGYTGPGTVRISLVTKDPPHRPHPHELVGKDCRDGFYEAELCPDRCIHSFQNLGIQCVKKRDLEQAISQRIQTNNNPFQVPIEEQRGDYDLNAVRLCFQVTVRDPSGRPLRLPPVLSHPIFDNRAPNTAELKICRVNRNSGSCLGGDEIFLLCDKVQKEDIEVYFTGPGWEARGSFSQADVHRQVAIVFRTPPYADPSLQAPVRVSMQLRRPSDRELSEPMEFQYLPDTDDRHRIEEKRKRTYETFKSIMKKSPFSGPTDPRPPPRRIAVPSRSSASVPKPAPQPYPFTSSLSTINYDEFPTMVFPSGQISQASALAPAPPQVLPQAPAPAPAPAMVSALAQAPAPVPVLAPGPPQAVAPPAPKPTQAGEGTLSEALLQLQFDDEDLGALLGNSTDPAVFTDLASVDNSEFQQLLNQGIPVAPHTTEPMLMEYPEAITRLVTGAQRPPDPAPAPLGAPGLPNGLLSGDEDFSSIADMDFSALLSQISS

Percent of parent (% of parent peptide), < 60:
USP7 peptide A23 (629-646, …) K633A
USP7 peptide A23 (629-646, …) R634A
USP7 peptide C13 (829-846, …) D833A
USP7 peptide C13 (829-846, …) F839A
USP7 peptide C13 (829-846, …) M835A
USP7 peptide C13 (829-846, …) Y845A
USP7 peptide C20 (857-874, …) Q872A
USP7 peptide C25 (877-894, …) D887A
USP7 peptide C25 (877-894, …) F888A
USP7 peptide C25 (877-894, …) F894A
USP7 peptide C30 (897-914, …) E905A
USP7 peptide C30 (897-914, …) F903A
USP7 peptide C30 (897-914, …) K914A
USP7 peptide C30 (897-914, …) L899A
